Reference: article PMC8262884

What was measured:
[1] = molecular target: native phosphoenolpyruvate carboxykinase (PEPCK) (Trypanosoma brucei (endogenous in EATRO1125.T7T procyclic cells))
[2] = molecular target: TY-tagged phosphoenolpyruvate carboxykinase (TY-PEPCK) (Trypanosoma brucei); experiment: proximity ligation; Duolink In Situ Red mouse/rabbit kit on PFA-fixed, Triton X-100-permeabilized Δpepck/TY-PEPCK/UGP-MYC.i procyclic cells; rabbit anti-MYC and mouse anti-TY1; cell lines with only one tagged protein as negative controls

Row | glycosomal import of the tagged UGP (Western blot of glycosomal and cytosolic fractions), against native UGP in parental cells [1] [fold] | percent of PLA-positive cells [2] [%] | Binder
1 | 9 | – | TY-UGP_(1-485) (enzyme) MPLNPPSAFSGAALACLEKMQASGVEEKCIHIFLIQHALVRKGETGYIPEKSISPVESLPFLQGIETKGENTALLRQAVVLKLNGGLGTGMGLNGPKSLLQVKNGQTFLDFTALQLEHFRQVRNCNVPFMLMNSFSTSGETKNFLRKYPTLYEVFDSDIELMQNRVPKIRQDNFFPVTYEADPTCEWVPPGHGDVYTVLYSSGKLDYLLGKGYRYMFISNGDNLGATLDVRLLDYMHEKQLGFLMEVCRRTESDKKGGHLAYKDVIDETTGQTRRRFVLRESAQCPKEDEDSFQNIAKHCFFNTNNIWINLMELKKMMDEQLGVLRLPVMRNPKTVNPQDSQSTKVYQLEVAMGAAISLFDRSEAVVVPRERFAPVKTCSDLLALRSDAYQVTEDQRLVLCEERNGKPPAIDLDGEHYKMIDGFEKLVKGGVPSLRQCTSLTVRGLVEFGADVSVRGNVVIKNLKEEPLIIGSGRVLDNEVVVVE
2 | – | 62 | MYC-tagged UDP-glucose pyrophosphorylase (UGP-MYC) (enzyme) MPLNPPSAFSGAALACLEKMQASGVEEKCIHIFLIQHALVRKGETGYIPEKSISPVESLPFLQGIETKGENTALLRQAVVLKLNGGLGTGMGLNGPKSLLQVKNGQTFLDFTALQLEHFRQVRNCNVPFMLMNSFSTSGETKNFLRKYPTLYEVFDSDIELMQNRVPKIRQDNFFPVTYEADPTCEWVPPGHGDVYTVLYSSGKLDYLLGKGYRYMFISNGDNLGATLDVRLLDYMHEKQLGFLMEVCRRTESDKKGGHLAYKDVIDETTGQTRRRFVLRESAQCPKEDEDSFQNIAKHCFFNTNNIWINLMELKKMMDEQLGVLRLPVMRNPKTVNPQDSQSTKVYQLEVAMGAAISLFDRSEAVVVPRERFAPVKTCSDLLALRSDAYQVTEDQRLVLCEERNGKPPAIDLDGEHYKMIDGFEKLVKGGVPSLRQCTSLTVRGLVEFGADVSVRGNVVIKNLKEEPLIIGSGRVLDNEVVVVE
